Experimental data reported in paper PMC3847324, “Jun dimerization protein 2 is a critical component of the Nrf2/MafK complex regulating the response to ROS homeostasis”.

Key:
[1] = target: IVT-Nrf2;IVT-JDP2;IVT-MafK (;mouse;rat, UniProt Q60795;P97875;Q8K4B3 1-597;1-163;1-156, ||); assay: EMSA; large complex with higher DNA-binding activity; EMSA: 5 ug GST fusion or 10 ng IVT protein, 25 C 30 min; 5% native PAGE in 0.5x TBE at 4 C; binding buffer, salt and pH not given; settings: tags: ;;, label: 32P 5' end (T4 kinase) as probe, blunt
IVT-Nrf2;IVT-JDP2 = target: T1, IVT-Nrf2;IVT-JDP2 (;mouse, UniProt Q60795;P97875 1-597;1-163, |); assay: EMSA; EMSA: 5 ug GST fusion or 10 ng IVT protein, 25 C 30 min; 5% native PAGE in 0.5x TBE at 4 C; binding buffer, salt and pH not given; settings: protein: ivt;ivt; tags: ;; copies: 1;1; label: 32P 5' end (T4 kinase) as probe; blunt
T1 sequence 1: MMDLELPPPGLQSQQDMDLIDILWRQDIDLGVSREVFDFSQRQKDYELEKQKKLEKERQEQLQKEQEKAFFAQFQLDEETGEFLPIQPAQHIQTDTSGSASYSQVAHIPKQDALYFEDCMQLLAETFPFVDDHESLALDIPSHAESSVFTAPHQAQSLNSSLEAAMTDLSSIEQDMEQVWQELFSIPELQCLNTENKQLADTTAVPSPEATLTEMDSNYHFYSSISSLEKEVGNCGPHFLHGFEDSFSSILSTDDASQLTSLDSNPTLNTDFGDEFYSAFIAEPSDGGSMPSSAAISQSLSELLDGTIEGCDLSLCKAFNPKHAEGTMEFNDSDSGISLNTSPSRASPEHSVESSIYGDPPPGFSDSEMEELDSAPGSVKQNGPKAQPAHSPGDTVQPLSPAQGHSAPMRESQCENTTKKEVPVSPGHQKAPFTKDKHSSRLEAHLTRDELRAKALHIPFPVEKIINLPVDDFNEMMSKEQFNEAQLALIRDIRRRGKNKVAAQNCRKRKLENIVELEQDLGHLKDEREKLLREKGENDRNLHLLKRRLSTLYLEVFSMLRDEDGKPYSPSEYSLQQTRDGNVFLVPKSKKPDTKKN
T1 sequence 2: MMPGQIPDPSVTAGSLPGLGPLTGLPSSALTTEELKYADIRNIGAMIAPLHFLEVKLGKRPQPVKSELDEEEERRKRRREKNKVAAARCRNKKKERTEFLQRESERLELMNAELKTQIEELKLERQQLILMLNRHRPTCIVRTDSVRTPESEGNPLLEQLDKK

B1: human NQO1-ARE WT (dsDNA)
DNA 1: CAGTCACAGTGACTCAGCAGAATCT
DNA 2: AGATTCTGCTGAGTCACTGTGACTG
binding result [1]: binds | binding result (IVT-Nrf2;IVT-JDP2): binds
